# Numbering of substitutions follows the chain as printed. In names and notes the source's numbering stands.
# T1: PUF4 RNA-binding domain (Saccharomyces cerevisiae, UniProt P25339 537-888)
# T1 sequence: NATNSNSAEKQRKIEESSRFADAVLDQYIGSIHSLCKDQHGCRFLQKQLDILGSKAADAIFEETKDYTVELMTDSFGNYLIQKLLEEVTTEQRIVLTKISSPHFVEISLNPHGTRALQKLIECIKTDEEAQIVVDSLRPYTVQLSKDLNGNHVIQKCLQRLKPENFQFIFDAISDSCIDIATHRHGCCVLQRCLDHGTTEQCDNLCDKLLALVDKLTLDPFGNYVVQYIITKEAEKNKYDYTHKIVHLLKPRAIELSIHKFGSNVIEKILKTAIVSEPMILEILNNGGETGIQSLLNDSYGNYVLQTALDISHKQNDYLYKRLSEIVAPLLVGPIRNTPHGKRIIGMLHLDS
# B1: Id_ii_S4_P3E.4_K3.3_C3.2_[C-2G]_H3.3_A3.1_F3.1_T3.2_[T9A]_[A10T] (ssRNA)
# RNA: UUUGACAACUGAUCGUUCUUUCUGUACACUAUAAUUUCUUUCUCGAUCAGUUGUCUUU
# B2: Id_ii_S4_P3E.3_K3.2_C3.2_[C-2T]_[T-1C]_H3.2_A3.1_F3.1_T3.2_[A10C] (ssRNA)
# RNA: UUUGACAACUGAUCGUUCUUUCUUCUAUAUAUAUCUUCUUUCUCGAUCAGUUGUCUUU
# B3: Id_ii_S4_P3E.3_K3.2_C3.2_[C-2A]_[T-1C]_H3.2_A3.1_F3.1_T3.2_[T9C] (ssRNA)
# RNA: B2 RNA with U24A, U34C, C35A
# B4: Id_ii_S4_P3E.4_K3.3_C3.2_[C-2G]_[T-1C]_H3.3_A3.1_F3.1_T3.2_[T9C] (ssRNA)
# RNA: B1 RNA with U25C, A34C, U35A
# B5: Id_ii_S4_P3E.3_K3.2_C3.2_[C-2A]_[T-1A]_H3.2_A3.1_F3.1_T3.2_[A10C] (ssRNA)
# RNA: B2 RNA with U24A, C25A
# B6: Id_ii_S4_P3E.3_K3.2_C3.2_[C-2A]_[T-1A]_H3.2_A3.1_F3.1_T3.2_[T9C]_[A10T] (ssRNA)
# RNA: B2 RNA with U24A, C25A, U34C, C35U
# B7: Id_ii_S4_P3E.3_K3.2_C3.2_[C-2A]_[T-1A]_H3.2_A3.1_F3.1_T3.2_[T9C]_[A10G] (ssRNA)
# RNA: B2 RNA with U24A, C25A, U34C, C35G
# B8: Id_ii_S4_P3E.3_K3.2_C3.2_[C-2A]_[T-1C]_H3.2_A3.1_F3.1_T3.2_[T9C]_[A10T] (ssRNA)
# RNA: B2 RNA with U24A, U34C, C35U
# B9: Id_ii_S4_P3E.3_K3.2_C3.2_H3.2_A3.1_F3.1_T3.2 (ssRNA)
# RNA: B2 RNA with U24C, C25U, C35A
# B10: Id_ii_S4_P3E.3_K3.2_C3.2_[C-2T]_H3.2_A3.1_F3.1_T3.2_[A10T] (ssRNA)
# RNA: B2 RNA with C25U, C35U
# B11: Id_ii_S4_P3E.4_K3.3_C3.2_[C-2G]_[T-1C]_H3.3_A3.1_F3.1_T3.2_[T9C]_[A10C] (ssRNA)
# RNA: B1 RNA with U25C, A34C, U35C
# B12: Id_ii_S4_P3E.3_K3.2_C3.2_[C-2T]_H3.2_A3.1_F3.1_T3.2_[T9C] (ssRNA)
# RNA: B2 RNA with C25U, U34C, C35A
# B13: Id_ii_S4_P3E.3_K3.2_C3.2_[C-2A]_H3.2_A3.1_F3.1_T3.2_[T9C]_[A10T] (ssRNA)
# RNA: B2 RNA with U24A, C25U, U34C, C35U
# B14: Id_ii_S4_P3E.3_K3.2_C3.2_H3.2_A3.1_F3.1_T3.2_[T9C]_[A10C] (ssRNA)
# RNA: B2 RNA with U24C, C25U, U34C
# B15: Id_ii_S4_P3E.3_K3.2_C3.2_H3.2_A3.1_F3.1_T3.2_[T9G]_[A10C] (ssRNA)
# RNA: B2 RNA with U24C, C25U, U34G
# B16: Id_ii_S4_P3E.3_K3.2_C3.2_[C-2T]_H3.2_A3.1_F3.1_T3.2 (ssRNA)
# RNA: B2 RNA with C25U, C35A
# B17: Id_ii_S4_P3E.3_K3.2_C3.2_[C-2A]_[T-1A]_H3.2_A3.1_F3.1_T3.2_[T9A]_[A10T] (ssRNA)
# RNA: B2 RNA with U24A, C25A, U34A, C35U
# B18: Id_ii_S4_P3E.3_K3.2_C3.2_[T-1G]_H3.2_A3.1_F3.1_T3.2_[T9A] (ssRNA)
# RNA: B2 RNA with U24C, C25G, U34A, C35A
# B19: Id_ii_S4_P3E.3_K3.2_C3.2_[C-2A]_H3.2_A3.1_F3.1_T3.2_[A10C] (ssRNA)
# RNA: B2 RNA with U24A, C25U
# B20: Id_ii_S4_P3E.3_K3.2_C3.2_[T-1C]_H3.2_A3.1_F3.1_T3.2_[T9A]_[A10C] (ssRNA)
# RNA: B2 RNA with U24C, U34A
# B21: Id_ii_S4_P3E.3_K3.2_C3.2_H3.2_A3.1_F3.1_T3.2_[A10T] (ssRNA)
# RNA: B2 RNA with U24C, C25U, C35U
# B22: Id_ii_S4_P3E.4_K3.3_C3.2_[C-2T]_[T-1C]_H3.3_A3.1_F3.1_T3.2_[T9C]_[A10G] (ssRNA)
# RNA: B1 RNA with G24U, U25C, A34C, U35G
# B23: Id_ii_S4_P3E.3_K3.2_C3.2_[T-1C]_H3.2_A3.1_F3.1_T3.2_[T9G]_[A10T] (ssRNA)
# RNA: B2 RNA with U24C, U34G, C35U
# B24: Id_ii_S4_P3E.3_K3.2_C3.2_[C-2T]_[T-1A]_H3.2_A3.1_F3.1_T3.2_[T9A]_[A10C] (ssRNA)
# RNA: B2 RNA with C25A, U34A
# B25: Id_ii_S4_P3E.4_K3.3_C3.2_[C-2G]_[T-1C]_H3.3_A3.1_F3.1_T3.2_[T9G]_[A10T] (ssRNA)
# RNA: B1 RNA with U25C, A34G
# B26: Id_ii_S4_P3E.3_K3.2_C3.2_[C-2A]_H3.2_A3.1_F3.1_T3.2 (ssRNA)
# RNA: B2 RNA with U24A, C25U, C35A
# B27: Id_ii_S4_P3E.3_K3.2_C3.2_[C-2A]_H3.2_A3.1_F3.1_T3.2_[T9A] (ssRNA)
# RNA: B2 RNA with U24A, C25U, U34A, C35A
# Target: T1, PUF4 RNA-binding domain
# Test: Mg; RNA-MaP; 20 mM Na-HEPES pH 7.4, 30 mM KOAc, 0.75 mM MgCl2, 0.1% Tween-20, 5% glycerol, 0.1 mg/mL BSA, 2 mM DTT; 25 C; 0.0125-409.6 nM protein
# Conditions: tags: N-His6-TEV cleaved; C-SNAP kept, Cy3B-labelled; label: tethered on chip by stalled RNA polymerase
row,Binder,Kd
1,B1,0.68 nM
2,UCUCUUUGUAUCAUUAUCUCUU (ssRNA) [Ia_S1_P5E.1_K5.1_C5.1_H5.1_A5.1_[T6C]_F5.1_T5.1],6.62 nM
3,UCUCUUUCUAAUAUUAUCUCUU (ssRNA) [Ib_S1_P5E.1_K5.1_C5.1_H5.1_[G2C]_A5.1_[T5A]_F5.1_T5.1],> 2300 nM
4,B2,120 nM
5,B3,261 nM
6,B4,115 nM
7,B5,296 nM
8,B6,167 nM
9,B7,745 nM
10,B8,132 nM
11,B9,68.6 nM
12,B10,70 nM
13,B11,50.2 nM
14,B12,220 nM
15,B13,214 nM
16,B14,190 nM
17,B15,567 nM
18,B16,117 nM
19,B17,584 nM
20,B18,404 nM
21,B19,134 nM
22,B20,467 nM
23,B21,56.4 nM
24,B22,> 2300 nM
25,B23,392 nM
26,B24,326 nM
27,B25,593 nM
28,B26,596 nM
29,B27,831 nM

# From article PMC9352680, “A comprehensive thermodynamic model for RNA binding by the Saccharomyces cerevisiae Pumilio protein PUF4”
